Assay results from publication doi:10.1101/2025.11.13.688252, “Cap1 forms a cyclic tetra-adenylate-induced membrane pore during the type III-A CRISPR-Cas immune response” (bioRxiv, 2025).

Tests used:
[1] = molecular target: T1, Cap1 (CRISPR-associated pore 1) (Parafilimonas terrae, UniProt A0A1I5TJE5, Q118A); experiment: ITC with purified CARFL Q118A domain; format: binding
T1 construct: gene SAMN05444277_102160; CARFL domain (residues 85–220), His6-tagged

[2] = molecular target: T2, Cap1 (CRISPR-associated pore 1) (Parafilimonas terrae, UniProt A0A1I5TJE5); experiment: ITC with purified CARFL domain; cryo-EM structure of cA4-bound full-length tetramer ([…] Å); format: binding
T2 construct: gene SAMN05444277_102160; ITC: CARFL domain (residues 85–220), His6-tagged; cryo-EM: full-length Cap1-His6 in GDN, homotetramer
T2 sequence (A0A1I5TJE5 85-220): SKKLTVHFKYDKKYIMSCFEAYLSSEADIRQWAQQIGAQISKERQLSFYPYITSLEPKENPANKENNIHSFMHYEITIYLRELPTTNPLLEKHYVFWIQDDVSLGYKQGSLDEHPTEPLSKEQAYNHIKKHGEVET

[3] = molecular target: Cap1 (CRISPR-associated pore 1), full-length, C-terminal His6 tag (Parafilimonas terrae); experiment: cryo-EM structure; Cap1 in GDN, 150 μM (as monomer) with 800 μM cA4, 30 min on ice; two classes: 2.9 Å (C4; DUF4579 not visible) and 3.6 Å (C4; DUF4579 visible, TM1 not resolved)
[4] = molecular target: Cap1 (CRISPR-associated pore 1), full-length, C-terminal His6 tag (Parafilimonas terrae); experiment: cryo-EM structure; apo-Cap1 in GDN, 200 μM protein, 0.5 mM FOM detergent added for grids; map at 3.4 Å, C1 symmetry
[5] = molecular target: Cap1 (CRISPR-associated pore 1), full-length, C-terminal His6 tag (Parafilimonas terrae); experiment: SEC-MALS; conjugate SEC-MALS (protein conjugate method) of apo-Cap1 without cOA ligand; Superdex200 10/300 increase; 25 mM Hepes pH 8, 200 mM NaCl, 2 mM β-mercaptoethanol, 5 % glycerol, 375 μM GDN

Row | Compound | Kd [1] [µM] | Kd [2] [µM] | stoichiometry N [3] | stoichiometry N [4] | stoichiometry N [5]
1 | Nc1ncnc2c1ncn2[C@@H]1O[C@@H]2COP(=O)(O)O[C@H]3[C@@H](O)[C@H](n4cnc5c(N)ncnc54)O[C@@H]3COP(=O)(O)O[C@H]3[C@@H](O)[C@H](n4cnc5c(N)ncnc54)O[C@@H]3COP(=O)(O)O[C@H]3[C@@H](O)[C@H](n4cnc5c(N)ncnc54)O[C@@H]3COP(=O)(O)O[C@H]2[C@H]1O [cA4, cyclic tetra-adenylate] | ~1.2 | ~0.033 | – | – | –
2 | Cap1 (CRISPR-associated pore 1), full-length, C-terminal His6 tag (natural protein) | – | – | 4 | 4 | 4
